Assay results published in US20230038638A1, “COMPLEMENT FACTOR I-RELATED COMPOSITIONS AND METHODS” (published 2023).
Positions count from the first letter of the chain named.

Assays:
[1] = target: T1, human C4b (human) (UniProt P0C0L4)
T1 sequence: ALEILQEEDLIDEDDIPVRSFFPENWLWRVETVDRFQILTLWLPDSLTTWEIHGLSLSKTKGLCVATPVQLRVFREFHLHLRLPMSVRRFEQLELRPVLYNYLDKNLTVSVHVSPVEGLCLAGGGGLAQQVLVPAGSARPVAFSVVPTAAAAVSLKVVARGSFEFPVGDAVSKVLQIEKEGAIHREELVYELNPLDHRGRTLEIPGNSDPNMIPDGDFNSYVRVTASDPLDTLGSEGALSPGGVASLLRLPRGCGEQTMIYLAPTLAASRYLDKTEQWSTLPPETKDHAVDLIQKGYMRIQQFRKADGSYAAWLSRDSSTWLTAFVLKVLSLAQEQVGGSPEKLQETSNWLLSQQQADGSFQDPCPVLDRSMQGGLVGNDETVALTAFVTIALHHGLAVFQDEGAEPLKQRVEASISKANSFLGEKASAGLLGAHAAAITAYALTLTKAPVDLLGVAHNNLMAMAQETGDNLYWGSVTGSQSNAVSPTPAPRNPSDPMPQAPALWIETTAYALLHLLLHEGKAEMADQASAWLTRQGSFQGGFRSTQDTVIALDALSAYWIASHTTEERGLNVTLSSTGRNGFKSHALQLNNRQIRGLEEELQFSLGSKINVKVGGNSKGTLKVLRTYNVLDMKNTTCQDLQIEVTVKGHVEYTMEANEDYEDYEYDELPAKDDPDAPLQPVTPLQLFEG

[2] = target: soluble human C3b (human) (UniProt P01024)
[3] = target: T2, human C4b (human) (UniProt P0C0L5)
T2 sequence: T1 sequence with A151T, D317G, P364L, C365S, L368I, D369H, N420S, V451A, L454R, S530A

[4] = target: soluble human C3b (human) (UniProt P01024); remark: listed apart in the source

| Substance | C4c EC50 [1] | iC3b EC50 [2] | C4c EC50 (nM) [1] | also measured |
| --- | --- | --- | --- | --- |
| CFI-HSA variant Y408L; E416A (enzyme) | > 1000 nM | 20.8 nM |  | C4b Screen Ref Fold (fold of CFI-HSA wild type) [3]: 0.41; iC3b Screen Ref Fold (fold of CFI-HSA wild type) [4]: 1.21 |
| CFI-HSA variant E457G; N531G; E461Q; R462K; F464Y; E530Y (enzyme) |  | 3.5 nM | 7.8 nM |  |
| CFI-HSA variant N531G; WT; GGSSGG (SEQ ID NO: 6); CR1(ccp15-17) (enzyme) | 60 nM | 36.7 nM |  |  |
| CFI-HSA variant E457G; E461Q; N531G; GGSSGG (SEQ ID NO: 6); CR1 (ccp15-17) (from UniProt P17927) (enzyme) |  | 33 nM | 50.3 nM |  |
| CFI-HSA variant Y408L; E457G; E461Q; R462K; N531G; ΔC-term (Δ558-PFISQYNV (SEQ ID NO: 14)-565) (enzyme) |  | 131 nM | 111 nM |  |
| CFI-HSA variant R557S (enzyme) |  | 208 nM | 247 nM |  |
| CFI-HSA variant K504E; Y408L; N531G (enzyme) | 120 nM | 19.4 nM |  |  |
| CFI-HSA variant F464P (enzyme) | > 1000 nM | > 500 nM |  |  |
| CFI-HSA variant D549N (enzyme) |  | 21.9 nM | 168 nM |  |
| CFI-HSA variant N531G; P535A; GGSSGG (SEQ ID NO: 6); CR1(ccp15-17) (enzyme) | 60.1 nM | 20.4 nM |  |  |
| CFI-HSA variant D425R; Y408L; N531G; E457G; E461Q; R462K; F464Y; E530Y (enzyme) |  | 4.3 nM | 12.3 nM |  |
| CFI-HSA variant T377G; E457G; E461Q; N531G (enzyme) |  | 4.3 nM | 10.9 nM |  |
| CFI-HSA variant R557F (enzyme) |  | 168 nM | 145 nM |  |
| CFI-HSA variant D549P (enzyme) |  | 41.7 nM | > 1000 nM |  |
| CFI-HSA variant D425T (enzyme) | 227 nM | 11.5 nM |  |  |
| CFI-HSA variant R557D (enzyme) |  | > 500 nM | 148 nM |  |
| CFI-HSA variant Y408L; WT; GGSSGG (SEQ ID NO: 6); CR1(ccp15-17) (enzyme) | 95.9 nM | 37.5 nM |  |  |
| CFI-HSA variant A405G (enzyme) |  | 21.7 nM | 158 nM |  |
| CFI-HSA variant D425I (enzyme) | 112 nM | 13 nM |  |  |
| CFI-HSA variant R557M (enzyme) |  | 164 nM | 82 nM |  |
| CFI-HSA variant N531G; E461Q; R462K (enzyme) | 38.7 nM | 5.3 nM |  |  |

| Substance | C4c EC50 [1] | iC3b EC50 [2] | C4c EC50 (nM) [1] | also measured |
| --- | --- | --- | --- | --- |
| CFI-HSA variant D425P (enzyme) | 640 nM | 13.6 nM |  |  |
| CFI-HSA variant Y408L; N531G; ΔC-term (Δ558-PFISQYNV (SEQ ID NO: 14)-565) (enzyme) |  | 110 nM | 173 nM |  |
| CFI-HSA variant E457G; N531G; P535G; WT; GGSSGG (SEQ ID NO: 6); CR1(ccp15-17) (enzyme) | 44.4 nM | 14.3 nM |  |  |
| CFI-HSA variant N531G; P535A; R557A (enzyme) |  | 47.5 nM | 28.2 nM |  |
| CFI-HSA variant R557I (enzyme) |  | 128 nM | 117 nM |  |
| CFI-HSA variant N531G; P535A; R557K (enzyme) |  | 17 nM | 52.2 nM |  |
| CFI-HSA variant H370G (enzyme) |  | 80.8 nM | > 1000 nM |  |
| CFI-HSA variant R557L (enzyme) |  | 113 nM | 177 nM |  |
| CFI-HSA variant R557V (enzyme) |  | 165 nM | 138 nM |  |
| CFI-HSA variant N531G; E457G; E461Q; ΔC-term (Δ558-PFISQYNV (SEQ ID NO: 14)-565) (enzyme) |  | 97.1 nM | 51.1 nM |  |
| CFI-HSA variant N531G; E457G; E461Q; R557K (enzyme) |  | 8.3 nM | 23.2 nM |  |
| CFI-HSA variant R557H (enzyme) |  | 198 nM | 98.8 nM |  |
| CFI-HSA variant E457G; E461Q; R557A (enzyme) |  | 36.6 nM | 61.8 nM |  |
| CFI-HSA variant R557P (enzyme) |  | 288 nM | 96.3 nM |  |
| CFI-HSA variant E457G; N531G; E461Q; R462K; F464Y; GGSSGG (SEQ ID NO: 6); CR1 (ccp15-17) (from UniProt P17927) (enzyme) |  | 32.7 nM | 43.1 nM |  |
| CFI-HSA variant R557T (enzyme) |  | 217 nM | 324 nM |  |
| CFI-HSA variant Y408L; E457G; E461Q; R462K; N531G; R557A (enzyme) |  | 24.2 nM | 27.4 nM |  |
| CFI-HSA variant T377G; E457G; E461Q (enzyme) |  | 4.5 nM | 14.9 nM |  |
| CFI-HSA variant E457G; N531G; E530Y (enzyme) |  | 5 nM | 13 nM |  |
| CFI-HSA variant E457G; N531G; WT; GGSSGG (SEQ ID NO: 6); CR1(ccp15-17) (enzyme) | 29.1 nM | 28.1 nM |  |  |
| CFI-HSA variant Y408L; E457G; E461Q; R462K; N531G; R557K (enzyme) |  | 24.6 nM | 17.3 nM |  |

| Substance | C4c EC50 [1] | iC3b EC50 [2] | C4c EC50 (nM) [1] | also measured |
| --- | --- | --- | --- | --- |
| CFI-HSA variant R557Q (enzyme) |  | 286 nM | 120 nM |  |
| CFI-HSA variant K504D; Y408L; N531G (enzyme) | 242 nM | 20.9 nM |  |  |
| CFI-HSA variant E457G; E461Q; R557K (enzyme) |  | 10.8 nM | 52.6 nM |  |
| CFI-HSA variant D425Y (enzyme) | 112 nM | 14.3 nM |  |  |
| CFI-HSA variant D425H (enzyme) | 123 nM | 10.7 nM |  |  |
| CFI-HSA variant K534H (enzyme) | 104 nM | 15.7 nM |  |  |
| CFI-HSA variant N531G; E457G; F464Y (enzyme) | 16.4 nM | 7 nM |  |  |
| CFI-HSA variant E457G; N531G (enzyme) | 11.2 nM | 6.5 nM |  |  |
| CFI-HSA variant R462K; F464Y (enzyme) | > 1000 nM | 106 nM |  |  |
| CFI-HSA variant N531G; E457G; E461Q; R557A (enzyme) |  | 19.1 nM | 25 nM |  |
| CFI-HSA variant D425W (enzyme) | 87.6 nM | 14.2 nM |  |  |
| CFI-HSA variant L307S (enzyme) | 54.1 nM | 18.4 nM |  |  |
| CFI-HSA variant E457G; D425R; E530Y (enzyme) |  | 3.6 nM | 234 nM |  |
| CFI-HSA variant E457G; WT; GGSSGG (SEQ ID NO: 6); CR1(ccp15-17) (enzyme) | 42.3 nM | 21.6 nM |  |  |
| CFI-HSA variant R557Y (enzyme) |  | 116 nM | 145 nM |  |
| CFI-HSA variant R557W (enzyme) |  | 198 nM | 165 nM |  |
| CFI-HSA variant D549A (enzyme) |  | 32.2 nM | > 1000 nM |  |
| CFI-HSA variant K504D (enzyme) |  | 53.1 nM | > 1000 nM | iC3b Screen Ref Fold (fold of reference) [4]: 0.17 |
| CFI-HSA variant Y408L; N531G; E457G; R462K (enzyme) | 23 nM | 6.9 nM |  |  |
| CFI-HSA variant N531G; E461Q (enzyme) | 24.2 nM | 5.4 nM |  |  |
| CFI-HSA variant R557N (enzyme) |  | 360 nM | 154 nM |  |
